This is an account of results in US20190175751A1 (UNIVERSITY OF UTAH RESEARCH FOUNDATION, published 2019).

The experiment addresses T1, FITC-HSA-MORF2 (human serum albumin grafted with multiple copies of morpholino MORF2, FITC-labelled) (human, UniProt P02768 25-609, a fraction of the amino groups converted with SM-(PEG)x to maleimido groups and carrying MORF2 via thioether bonds; FITC label).
T1 construct: mature; also called HSA-(MORF2)x; Nanoconjugate 2A
As to the kind of experiment: confocal microscopy on CD20-expressing Raji cells, without Cy5-Fab′RTX-MORF1. The source says:
Thus, we conducted in vitro confocal microscopy study, using CD20-expressing human NHL Raji B cell line (FIG. 7).

B1: CD20 on human Burkitt's B-cell non-Hodgkin's lymphoma Raji cells (receptor, UniProt P11836 1-297, looked up)
chain: MTTPRNSVNGTFPAEPMKGPIAMQSGPKPLFRRMSSLVGPTQSFFMRESKTLGAVQIMNGLFHIALGGLLMIPAGIYAPICVTVWYPLWGGIMYIISGSLLAATEKNSRKCLVKGKMIMNSLSLFAAISGMILSIMDILNIKISHFLKMESLNFIRAHTPYINIYNCEPANPSEKNSPSTQYCYSIQSLFLGILSVMLIFAFFQELVIAGIVENEWKRTCSRPKSNIVLLSAEEKKEQTIEIKEEVVGLTETSSQPKNEEDIEIIPIQEEEEEETETNFPEPPQDQESSPIENDSSP
notes: whole, on cells; also called CD20 antigen; CD20 receptor
For B1, the binding result is “no binding”.
